Test results published in patent US20260242478A1 (published 2026).

B1: Phage-1675 (peptide)
peptide: TCAAGATWVWPTCF
notes: Peptide-92 library clone
B2: Phage-1682 (peptide)
peptide: TCAAGAKYVWPLCF
notes: Peptide-92 library clone
B3: Phage-1582 (peptide)
peptide: GCAAGASYPWPACL
notes: also called Peptide-92 library clone
B4: Phage-1537 (peptide)
peptide: QCAAGAMWTWPACF
notes: tested as crude phage supernatant
B5: Phage-1679 (peptide)
peptide: WCAAFFHYPWPQCF
notes: Peptide-92 library clone
B6: Phage-1688 (peptide)
peptide: SCSAGAMWLWPECF
notes: Peptide-92 library clone
B7: Phage-1546 (peptide)
peptide: TCAAGATWDWPLCF
notes: as for B4
B8: Phage-1678 (peptide)
peptide: QCAAGFSYTWPECY
notes: Peptide-92 library clone
B9: Phage-1538 (peptide)
peptide: TCAAGAAWEWPICF
notes: as for B4
B10: Phage-1536 (peptide)
peptide: TCSAVFSYTWSNCF
notes: as for B4
B11: Phage-1540 (peptide)
peptide: SCSAGAMYPWPMCL
notes: as for B4
B12: Phage-1676 (peptide)
peptide: TCSAGAMYNWPECF
notes: Peptide-92 library clone
B13: Phage-1686 (peptide)
peptide: SCAAGATYEWPTCL
notes: Peptide-92 library clone
B14: Phage-1543 (peptide)
peptide: TCEAVFIYSWPFCL
notes: as for B4
B15: Phage-1684 (peptide)
peptide: TCAAGASWDWPFCF
notes: Peptide-92 library clone
B16: Phage-1541 (peptide)
peptide: TCAAGASWEWPLCF
notes: as for B4
B17: Phage-1534 (peptide)
peptide: TCSAGATYSWPFCF
notes: as for B4
B18: Phage-1584 (peptide)
peptide: TCSAGATYSWPACL
notes: as for B3
B19: Phage-1590 (peptide)
peptide: LCAAGFMYEWPLCF
notes: as for B3
B20: Phage-1589 (peptide)
peptide: TCAAGASYPWPLCV
notes: as for B3
B21: Phage-1680 (peptide)
peptide: RCKAGVPYKWPMCL
notes: Peptide-92 library clone
B22: Phage-1689 (peptide)
peptide: WCSAVFSYQWPPCF
notes: Peptide-92 library clone
B23: Phage-1687 (peptide)
peptide: SCAAGATYKWPACF
notes: Peptide-92 library clone
B24: Phage-1677 (peptide)
peptide: TCSAGAMYSWPLCI
notes: Peptide-92 library clone
B25: Phage-1539 (peptide)
peptide: TCAAGAMWNWPQCY
notes: as for B4
B26: Phage-1581 (peptide)
peptide: RCAAGFHYSWPNCF
notes: as for B3
B27: Phage-1545 (peptide)
peptide: LCAEGADYPWPMCL
notes: as for B4
B28: Phage-1577 (peptide)
peptide: RCSFRFITLAEACV
notes: as for B3
B29: Phage-1532 (peptide)
peptide: SCSAGAAWPWPWCL
notes: as for B4
B30: Phage-1760 (peptide)
peptide: LCQWYPKFHWMDCD
notes: also called Peptide-210
B31: Phage-1585 (peptide)
peptide: TCAAGASWNWPACE
notes: Read from the row with '-' = Peptide-92 residue: TCAAGASWNWPACE; also called Peptide-92 library clone
B32: Phage-1588 (peptide)
peptide: MCAAGAAWAWPLCL
notes: as for B3
B33: Phage-1578 (peptide)
peptide: TCSAGAHYPWPICL
notes: as for B3
B34: Phage-1576 (peptide)
peptide: SCSAGASLQLSQCF
notes: as for B3
B35: Phage-1533 (peptide)
peptide: LCAEGFDYSWPMCL
notes: as for B4
B36: Phage-1685 (peptide)
peptide: ECGWEPGQHWRVCF
notes: Peptide-92 library clone
B37: Phage-1542 (peptide)
peptide: TCSAGATYVWPDCF
notes: as for B4
B38: Phage-1586 (peptide)
peptide: LCAAGAHYSWPACF
notes: as for B3
B39: Phage-1544 (peptide)
peptide: LCSAGAMWQWPTCL
notes: as for B4
B40: Phage-1583 (peptide)
peptide: PCAAGAMWPWPVCL
notes: as for B3
B41: Phage-1580 (peptide)
peptide: LCSAGFLFQWSTCL
notes: as for B3
B42: Phage-1681 (peptide)
peptide: TCAAGATYEWPSCI
notes: Peptide-92 library clone
B43: Phage-1535 (peptide)
peptide: SCKAGAPYYWPGCF
notes: as for B4
B44: Phage-1683 (peptide)
peptide: LCEAGFNYDWPRCL
notes: Peptide-92 library clone
B45: Phage-1587 (peptide)
peptide: PCSAGVTYAWLYCV
notes: as for B3
B46: Phage-1579 (peptide)
peptide: TCAAGAQFAWPLCL
notes: as for B3

Key:
[1] = molecular target: T1, Anti-CD28 Fab (SEQ ID NOs: 696, 697); assay: phage binding ELISA; biotinylated anti-CD28 Fab on neutravidin plate, clonal phage detected with anti-M13-HRP;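 note: crude clonal phage supernatants added briefly to wells preincubated in blocking buffer with or without CD28 antigen, then washed before detection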
T1 construct: In the phage ELISA the Fab was biotinylated and captured on neutravidin coated plates
T1 sequence (VH, as listed by the source, chain 1 of 2): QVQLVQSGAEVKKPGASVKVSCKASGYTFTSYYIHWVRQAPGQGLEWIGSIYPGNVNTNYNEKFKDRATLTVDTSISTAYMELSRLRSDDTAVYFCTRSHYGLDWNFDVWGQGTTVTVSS
T1 sequence (VL, as listed by the source, chain 2 of 2): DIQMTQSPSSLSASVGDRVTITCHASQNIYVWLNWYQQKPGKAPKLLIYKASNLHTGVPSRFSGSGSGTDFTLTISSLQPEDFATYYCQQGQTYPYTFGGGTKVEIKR
Method: (§1) Clonal phage were harvested as crude supematants and screened via standard ELISAs. […] Prior to the addition of clonal phage, wells were incubated with blocking buffer and CD28 antigen or blocking buffer alone. Without washing or aspirating, clonal phage supematants were then added to the wells and incubated for a short time. Wells were then washed followed by detection of bound phage using a horse radish conjugated anti-M13 antibody. Clonal phage of interest were then sent for sequence analysis.

[2] = molecular target: T1, Anti-CD28 Fab (SEQ ID NOs: 696, 697); assay: phage binding ELISA; Fab-coated wells pre-incubated with CD28 antigen as competitor, phage detected with anti-M13-HRP
Method: as §1

[3] = molecular target: Anti-CD28 Fab (SEQ ID NOs: 696, 697); assay: phage binding ELISA; biotinylated anti-CD28 Fab on neutravidin plate, clonal phage supernatant, anti-M13 HRP detection;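 note: wells pretreated with blocking buffer, either plus or minus CD28 antigen, then given crude phage supernatant briefly without washing in between, then washed before anti-M13 HRP readout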
Target sequence in this assay (VH, as listed by the source, chain 1 of 2): as the sequence (VH, as listed by the source, chain 1 of 2) above
Target sequence in this assay (VL, as listed by the source, chain 2 of 2): as the sequence (VL, as listed by the source, chain 2 of 2) above
Method: (§2) Clonal phage were harvested as crude supematants and screened via standard ELISAs. […] Prior to the addition of clonal phage, wells were incubated with blocking buffer and CD28 antigen or blocking buffer alone. Without washing or aspirating, clonal phage supematants were then added to the wells and incubated for a short time. Wells were then washed followed by detection of bound phage using a horse radish conjugated anti-M13 antibody.

[4] = molecular target: Anti-CD28 Fab (SEQ ID NOs: 696, 697); assay: phage binding ELISA; Fab-coated wells pre-incubated with saturating CD28 antigen as competitor, anti-M13 HRP detection
Target sequence in this assay (VH, as listed by the source, chain 1 of 2): as the sequence (VH, as listed by the source, chain 1 of 2) above
Target sequence in this assay (VL, as listed by the source, chain 2 of 2): as the sequence (VL, as listed by the source, chain 2 of 2) above
Method: as §2

[5] = molecular target: T2, Anti-CD28 Fab (SEQ ID NOs: 696, 697); assay: phage binding ELISA; biotinylated anti-CD28 Fab on neutravidin plate, bound phage detected with anti-M13-HRP;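 note: clonal phage tested as crude supernatants, given a short incubation in the Fab-captured wells before bound phage were read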
T2 construct: Biotinylated and captured on neutravidin coated plates in the phage ELISA
T2 sequence (VH, as listed by the source, chain 1 of 2): as the sequence (VH, as listed by the source, chain 1 of 2) above
T2 sequence (VL, as listed by the source, chain 2 of 2): as the sequence (VL, as listed by the source, chain 2 of 2) above
Method: as §1

[6] = molecular target: T2, Anti-CD28 Fab (SEQ ID NOs: 696, 697); assay: phage binding ELISA on captured anti-CD28 Fab; competitor: CD28 antigen pre-incubated in the well;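 note: clonal phage supernatants added briefly to wells preblocked with or without CD28, bound phage detected through an HRP-linked anti-M13 antibody, wells with blocking buffer alone as comparison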
Method: as §1

[7] = molecular target: T3, Anti-PSMA Fab (SEQ ID NOs: 19, 20); assay: phage binding ELISA; clonal phage on biotinylated PSMA Fab captured on neutravidin plates, anti-M13 HRP detection
T3 construct: Biotinylated Fab captured on neutravidin coated plates in the phage ELISA; also called 006 PSMA Fab
Method: (§3) Clonal phage were harvested as crude supernatants and screened via standard ELISAs. […] Prior to the addition of clonal phage. wells were incubated with blocking buffer and PSMA antigen or blocking buffer alone. Without washing or aspirating, clonal phage supernatants were then added to the wells and incubated for a short time. Wells were then washed followed by detection of bound phage using a horse radish conjugated anti-M13 antibody.

[8] = molecular target: T3, Anti-PSMA Fab (SEQ ID NOs: 19, 20); assay: phage binding ELISA on PSMA Fab coated plates; competitor: PSMA antigen
Method: as §3

Binder | Anti-CD28 Fab (SEQ ID NOs: 696, 697) signal [1] | Anti-CD28 Fab signal in the presence of CD28 [2] | Anti-CD28 Fab (SEQ ID NOs: 696, 697) signal [3] | Anti-CD28 Fab signal in the presence of CD28 [4] | Anti-CD28 Fab (SEQ ID NOs: 696, 697) signal [5] | Anti-CD28 Fab signal in the presence of CD28 [6] | other results
B1 | 0.92 | 0.07 |  |  |  |  | 
B2 | 0.85 | 0.12 |  |  |  |  | 
B3 |  |  | 1.41 | 0.06 |  |  | 
B4 |  |  |  |  | 1.54 | 0.06 | 
B5 | 0.87 | 0.05 |  |  |  |  | 
B6 | 0.8 | 0.06 |  |  |  |  | 
B7 |  |  |  |  | 1.51 | 0.06 | 
B8 | 0.9 | 0.11 |  |  |  |  | 
B9 |  |  |  |  | 1.54 | 0.06 | 
B10 |  |  |  |  | 1.54 | 0.06 | 
B11 |  |  |  |  | 1.53 | 0.06 | 
B12 | 0.92 | 0.08 |  |  |  |  | 
B13 | 0.81 | 0.07 |  |  |  |  | 
B14 |  |  |  |  | 1.52 | 0.08 | 
B15 | 0.82 | 0.08 |  |  |  |  | 
B16 |  |  |  |  | 1.52 | 0.08 | 
B17 |  |  |  |  | 1.55 | 0.07 | 
B18 |  |  | 1.41 | 0.06 |  |  | 
B19 |  |  | 1.4 | 0.06 |  |  | 
B20 |  |  | 1.4 | 0.06 |  |  | 
B21 | 0.87 | 0.06 |  |  |  |  | 
B22 | 0.78 | 0.06 |  |  |  |  | 
B23 | 0.8 | 0.06 |  |  |  |  | 

Binder | Anti-CD28 Fab (SEQ ID NOs: 696, 697) signal [1] | Anti-CD28 Fab signal in the presence of CD28 [2] | Anti-CD28 Fab (SEQ ID NOs: 696, 697) signal [3] | Anti-CD28 Fab signal in the presence of CD28 [4] | Anti-CD28 Fab (SEQ ID NOs: 696, 697) signal [5] | Anti-CD28 Fab signal in the presence of CD28 [6] | other results
B24 | 0.91 | 0.08 |  |  |  |  | 
B25 |  |  |  |  | 1.54 | 0.07 | 
B26 |  |  | 1.41 | 0.06 |  |  | 
B27 |  |  |  |  | 1.51 | 0.08 | 
B28 |  |  | 1.41 | 0.08 |  |  | 
B29 |  |  |  |  | 1.55 | 0.08 | 
B30 |  |  |  |  |  |  | Anti-PSMA Fab (SEQ ID NOs: 19, 20) signal [7]: 0.611; Anti-PSMA Fab signal in the presence of PSMA [8]: 0.0695
B31 |  |  | 1.41 | 0.07 |  |  | 
B32 |  |  | 1.4 | 0.07 |  |  | 
B33 |  |  | 1.41 | 0.08 |  |  | 
B34 |  |  | 1.41 | 0.05 |  |  | 
B35 |  |  |  |  | 1.55 | 0.08 | 
B36 | 0.82 | 0.06 |  |  |  |  | 
B37 |  |  |  |  | 1.52 | 0.09 | 
B38 |  |  | 1.41 | 0.09 |  |  | 
B39 |  |  |  |  | 1.51 | 0.05 | 
B40 |  |  | 1.41 | 0.06 |  |  | 
B41 |  |  | 1.41 | 0.06 |  |  | 
B42 | 0.86 | 0.09 |  |  |  |  | 
B43 |  |  |  |  | 1.54 | 0.08 | 
B44 | 0.85 | 0.07 |  |  |  |  | 
B45 |  |  | 1.41 | 0.06 |  |  | 
B46 |  |  | 1.41 | 0.07 |  |  | 
